Data from the supplement of paper PMC9732359.
± gives the uncertainty stated by the source.

Assay: protein stability index of a GFP-peptide fusion (yeast GPS) (PSI 1-4); higher = more stable; sorted into four equal gates, so the index is relative within each strain
In short: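 Yeast carrying a pooled library were grown to mid-log phase in leucine-free medium. Each library plasmid expresses Cherry and has a tiled 17-residue yeast protein peptide fused downstream of GFP. Cells were sorted into four equal gates by GFP/Cherry ratio, and plasmids from each gate were PCR-amplified, Illumina-sequenced and assigned to strains by barcode. Summing, across gates, the read frequency times the gate number gave each peptide's protein stability index.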

In the case of LLHHVSELDSNDFFIIY [YJL039C/NUP192], the protein stability index (doa10∆) is reported as 1.7 ± 0.088, the protein stability index (pdr5∆) is reported as 1.74 ± 0.088 and the protein stability index (san1∆) is reported as 1.61 ± 0.14. It also gave a protein stability index (ubr1∆) of 2.02 ± 0.078.
With LLKGPASTVAKTAPIQE [YOR098C/NUP1] the protein stability index (doa10∆) was 2.52 ± 0.1, the protein stability index (pdr5∆) was 2.46 ± 0.094 and the protein stability index (san1∆) was 1.91 ± 0.18. It also gave a protein stability index (ubr1∆) of 2.87 ± 0.071.
Sequence LLKLLTRLVQLREFRIT [GRR1] has a protein stability index (doa10∆) of 1.89 ± 0.053, a protein stability index (pdr5∆) of 1.27 ± 0.044 and a protein stability index (san1∆) of 1.23 ± 0.13. The protein stability index (ubr1∆) was 1.08 ± 0.052.
With LLKPFHVKVNDKKEMTI [SIR3] the protein stability index (doa10∆) was 3.05 ± 0.18, the protein stability index (pdr5∆) was 2.58 ± 0.15 and the protein stability index (san1∆) was 2.21 ± 0.14. It also gave a protein stability index (ubr1∆) of 2.68 ± 0.14.
Work on LLKQYPKDSSSTFREWK [YJR042W/NUP85] yielded a protein stability index (doa10∆) of 2.54 ± 0.045, a protein stability index (pdr5∆) of 2.6 ± 0.048 and a protein stability index (san1∆) of 2.71 ± 0.038. The protein stability index (ubr1∆) was 2.81 ± 0.042.
With LLMSCPRLSHLSLTAVP [GRR1] the protein stability index (doa10∆) was 1.9 ± 0.051, the protein stability index (pdr5∆) was 1.57 ± 0.054 and the protein stability index (san1∆) was 1.63 ± 0.12. The protein stability index (ubr1∆) was 2.19 ± 0.059.
Sequence LLNAADRDALSGWGAVV [PUP3] has a protein stability index (doa10∆) of 3.17 ± 0.12, a protein stability index (pdr5∆) of 3.2 ± 0.099 and a protein stability index (san1∆) of 3.03 ± 0.081. The protein stability index (ubr1∆) was 3.09 ± 0.099.
For LLQLKYFSNKTSTGIIR [POP5], the protein stability index (doa10∆) was 2.46 ± 0.19, the protein stability index (pdr5∆) was 1.84 ± 0.13 and the protein stability index (san1∆) was 1.35 ± 0.29. For the same sequence, the protein stability index (ubr1∆) was 1.98 ± 0.062.
For LLRFNGVERLIPVGDNT [PRE4], the protein stability index (doa10∆) was 1.58 ± 0.068, the protein stability index (pdr5∆) was 1.73 ± 0.07 and the protein stability index (san1∆) was 1.53 ± 0.13. For the same sequence, the protein stability index (ubr1∆) was 1.86 ± 0.093.
With LLSDVVSTSSGAAANNN [YJL041W/NSP1] the protein stability index (doa10∆) was 3.24 ± 0.077, the protein stability index (pdr5∆) was 3.06 ± 0.11 and the protein stability index (san1∆) was 3.32 ± 0.047. It also gave a protein stability index (ubr1∆) of 3.52 ± 0.11.
With LLSGEDLTLDDISLKAD [YJL039C/NUP192] the protein stability index (doa10∆) was 3.36 ± 0.052, the protein stability index (pdr5∆) was 3.39 ± 0.065 and the protein stability index (san1∆) was 3.44 ± 0.038. For the same sequence, the protein stability index (ubr1∆) was 3.23 ± 0.048.
Work on LLSSESNIPTLIEKLQG [YDL116W/NUP84] yielded a protein stability index (doa10∆) of 2.42 ± 0.091, a protein stability index (pdr5∆) of 3.01 ± 0.11 and a protein stability index (san1∆) of 2.6 ± 0.047. It also gave a protein stability index (ubr1∆) of 3.07 ± 0.072.
In the case of LLTPDIGAVYSGMGPDY [PRE8], the protein stability index (doa10∆) is reported as 1.32 ± 0.055, the protein stability index (pdr5∆) is reported as 1.72 ± 0.074 and the protein stability index (san1∆) is reported as 1.2 ± 0.1. It also gave a protein stability index (ubr1∆) of 1.52 ± 0.081.
In the case of LLYADSLTAEAMTAAEH [CYT1], the protein stability index (doa10∆) is reported as 2.34 ± 0.056, the protein stability index (pdr5∆) is reported as 2.67 ± 0.054 and the protein stability index (san1∆) is reported as 2.78 ± 0.057. For the same sequence, the protein stability index (ubr1∆) was 2.58 ± 0.041.
LMASVILDSLPSVIHSS [YDL116W/NUP84] gave a protein stability index (doa10∆) of 1.76 ± 0.042, a protein stability index (pdr5∆) of 1.38 ± 0.039 and a protein stability index (san1∆) of 1.34 ± 0.067. For the same sequence, the protein stability index (ubr1∆) was 1.48 ± 0.034.
Work on LMDDMSDISDLDDLGFL [RPN3] yielded a protein stability index (doa10∆) of 1.77 ± 0.062, a protein stability index (pdr5∆) of 1.81 ± 0.059 and a protein stability index (san1∆) of 1.92 ± 0.091. The protein stability index (ubr1∆) was 1.77 ± 0.04.
For LMDKCLPKVRIRTRRAA [DIS3], the protein stability index (doa10∆) was 1.86 ± 0.06, the protein stability index (pdr5∆) was 1.34 ± 0.048 and the protein stability index (san1∆) was 1.42 ± 0.085. It also gave a protein stability index (ubr1∆) of 1.5 ± 0.039.
For LMEKNRIRKLTGQNFLT [REC8], the protein stability index (doa10∆) was 1.36 ± 0.044, the protein stability index (pdr5∆) was 1.37 ± 0.038 and the protein stability index (san1∆) was 1.65 ± 0.077. It also gave a protein stability index (ubr1∆) of 1.33 ± 0.041.
Work on LMLEDTDGDSILYYDVL [BRR2] yielded a protein stability index (doa10∆) of 2.85 ± 0.074, a protein stability index (pdr5∆) of 3.17 ± 0.092 and a protein stability index (san1∆) of 3.12 ± 0.067. It also gave a protein stability index (ubr1∆) of 3.1 ± 0.058.
LMRELLKMMKLIVDTHV [PRP8] showed a protein stability index (doa10∆) of 1.9 ± 0.083, a protein stability index (pdr5∆) of 1.34 ± 0.06 and a protein stability index (san1∆) of 2.29 ± 0.088. The protein stability index (ubr1∆) was 1.39 ± 0.06.
With LMYQIKKECALLISYGV [SRB4] the protein stability index (doa10∆) was 1.9 ± 0.12, the protein stability index (pdr5∆) was 3.09 ± 0.16 and the protein stability index (san1∆) was 2.12 ± 0.19. It also gave a protein stability index (ubr1∆) of 1.93 ± 0.15.
Sequence LNAIILKLEKLNTNRTF [SMC3] has a protein stability index (doa10∆) of 2.19 ± 0.047, a protein stability index (pdr5∆) of 2.31 ± 0.051 and a protein stability index (san1∆) of 2.24 ± 0.09. It also gave a protein stability index (ubr1∆) of 2.76 ± 0.048.
Sequence LNAITLDGDRADKRGVL [SMC3] has a protein stability index (doa10∆) of 2.94 ± 0.15, a protein stability index (pdr5∆) of 3.1 ± 0.17 and a protein stability index (ubr1∆) of 3.03 ± 0.097.
In the case of LNAIVSKNSPAEDDVII [YJR042W/NUP85], the protein stability index (doa10∆) is reported as 3.44 ± 0.14, the protein stability index (pdr5∆) is reported as 3.37 ± 0.17 and the protein stability index (san1∆) is reported as 3.27 ± 0.087. It also gave a protein stability index (ubr1∆) of 3.22 ± 0.12.
Work on LNDEGEPIKVNVRVGQA [RPN1] yielded a protein stability index (doa10∆) of 3.13 ± 0.09, a protein stability index (pdr5∆) of 3.03 ± 0.062 and a protein stability index (san1∆) of 2.85 ± 0.065. It also gave a protein stability index (ubr1∆) of 3.2 ± 0.063.
LNDENSDDYDNEGAASS [SMC1] showed a protein stability index (doa10∆) of 3.39 ± 0.25.
